According to the supplement of paper PMC9876800:

Test system: peptide library, one residue held at a place counted from the S/T acceptor
Assay: relative phosphorylation of the sub-library (ratio to the mean residue at this position); higher = residue favoured
Details: human
In short: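 Purified recombinant kinases (human or orthologue constructs) were incubated in 384-well plates with biotinylated degenerate peptide sub-libraries, each fixing one residue at one position around a central Ser/Thr. Peptides were at 50 μM, with 50 μM ATP spiked with γ-32P-ATP, for 90 min under kinase-specific conditions. Spots on streptavidin membranes were phosphorimaged and quantified by densitometry. Relative sub-library phosphorylation is a ratio to the mean residue at that position.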

TGFBR2, construct: aa190-end, sequence (P37173 190-567, looked up): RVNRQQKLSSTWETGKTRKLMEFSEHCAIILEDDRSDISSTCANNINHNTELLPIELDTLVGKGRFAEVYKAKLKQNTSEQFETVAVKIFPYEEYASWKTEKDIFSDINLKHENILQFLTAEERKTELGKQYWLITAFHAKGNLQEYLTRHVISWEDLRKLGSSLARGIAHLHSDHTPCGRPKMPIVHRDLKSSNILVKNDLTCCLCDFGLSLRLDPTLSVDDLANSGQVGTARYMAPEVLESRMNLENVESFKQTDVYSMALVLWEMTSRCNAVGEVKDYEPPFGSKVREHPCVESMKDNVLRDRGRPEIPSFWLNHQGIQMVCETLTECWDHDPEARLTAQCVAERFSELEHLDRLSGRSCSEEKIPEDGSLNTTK
FAM20C, construct: aa23-end, sequence (Q8IXL6 23-584, looked up): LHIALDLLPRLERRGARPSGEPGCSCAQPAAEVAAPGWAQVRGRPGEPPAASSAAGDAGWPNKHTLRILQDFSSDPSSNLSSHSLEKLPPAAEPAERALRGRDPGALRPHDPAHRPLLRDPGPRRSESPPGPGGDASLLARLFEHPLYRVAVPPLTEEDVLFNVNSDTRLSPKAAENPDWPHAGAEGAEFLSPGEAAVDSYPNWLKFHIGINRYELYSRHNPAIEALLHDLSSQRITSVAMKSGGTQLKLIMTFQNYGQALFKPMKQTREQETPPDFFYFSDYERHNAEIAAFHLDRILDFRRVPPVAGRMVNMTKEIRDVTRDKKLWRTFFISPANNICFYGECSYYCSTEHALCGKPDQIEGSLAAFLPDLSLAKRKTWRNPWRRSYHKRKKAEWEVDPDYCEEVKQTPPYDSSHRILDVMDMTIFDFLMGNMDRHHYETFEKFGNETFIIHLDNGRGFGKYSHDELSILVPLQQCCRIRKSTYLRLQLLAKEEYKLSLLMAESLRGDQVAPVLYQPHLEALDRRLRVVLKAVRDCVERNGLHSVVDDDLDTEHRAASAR
STK3, construct: Full length, sequence (Q13188 whole entry, looked up): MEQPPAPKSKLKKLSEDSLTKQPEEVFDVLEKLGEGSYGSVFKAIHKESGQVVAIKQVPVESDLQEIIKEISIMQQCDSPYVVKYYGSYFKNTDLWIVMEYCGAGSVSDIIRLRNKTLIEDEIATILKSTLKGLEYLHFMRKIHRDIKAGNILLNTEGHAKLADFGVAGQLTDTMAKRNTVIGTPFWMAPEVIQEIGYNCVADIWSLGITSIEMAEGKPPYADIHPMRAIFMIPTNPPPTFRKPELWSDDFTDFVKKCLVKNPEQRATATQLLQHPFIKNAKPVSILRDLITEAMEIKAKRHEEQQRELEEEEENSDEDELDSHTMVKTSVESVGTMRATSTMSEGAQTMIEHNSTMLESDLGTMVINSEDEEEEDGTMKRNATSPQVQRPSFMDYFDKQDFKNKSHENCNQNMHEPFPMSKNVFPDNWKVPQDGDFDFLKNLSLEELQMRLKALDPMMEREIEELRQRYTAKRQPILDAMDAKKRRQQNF
SBK1, construct: Full length, sequence (Q52WX2 whole entry, looked up): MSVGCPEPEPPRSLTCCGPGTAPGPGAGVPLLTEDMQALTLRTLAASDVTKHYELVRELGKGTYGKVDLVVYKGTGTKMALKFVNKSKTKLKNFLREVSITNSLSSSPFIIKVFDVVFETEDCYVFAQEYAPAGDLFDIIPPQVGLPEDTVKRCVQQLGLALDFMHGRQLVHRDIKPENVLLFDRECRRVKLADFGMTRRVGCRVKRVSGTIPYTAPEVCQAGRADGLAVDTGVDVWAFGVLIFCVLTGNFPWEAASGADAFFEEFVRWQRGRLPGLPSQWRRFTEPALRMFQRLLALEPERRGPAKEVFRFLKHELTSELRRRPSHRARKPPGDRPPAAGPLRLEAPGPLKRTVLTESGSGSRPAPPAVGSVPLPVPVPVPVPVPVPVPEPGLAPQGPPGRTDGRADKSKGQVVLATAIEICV

FAM20C, construct: aa23-end (from UniProt Q8IXL6)
relative phosphorylation
Details	at +1	at +2	at +3	at +4	at -1	at -2	at -3	at -4	at -5
A fixed	1.77	0.243	0.795	0.935	1.27	1.28	0.91	1.14	1.14
D fixed	1.03	0.708	2.21	1.67	2.77	1.99	1.61	1.68	1.46
E fixed	2.15	13	2.58	1.91	1.4	1.19	1.66	1.52	1.31
F fixed	0.537	0.173	0.624	0.825	0.423	0.95	0.693	0.737	1.04
G fixed	1.61	0.214	0.518	1.45	1.31	1.28	1.45	1.26	1.05
H fixed	1.39	0.25	0.863	0.874	1.29	1.08	0.95	1.02	1.43
I fixed	0.52	0.155	1.13	1.02	0.468	0.663	0.619	0.789	0.751
K fixed	0.822	0.185	0.516	0.607	0.589	0.647	0.719	0.745	0.896
L fixed	0.54	0.159	1.07	0.788	0.485	0.581	0.968	0.826	0.832
M fixed	1.11	0.205	0.884	0.92	0.555	0.673	0.851	0.887	0.761
N fixed	1.08	0.277	0.845	0.806	2.19	1.8	1.2	1.08	1.14
P fixed	0.253	0.18	0.252	0.777	0.303	1.11	1.01	1.06	0.843
Q fixed	1.26	0.454	1.17	0.863	0.934	0.809	1.07	0.997	0.907
R fixed	0.958	0.2	0.603	0.571	0.685	0.612	0.918	0.75	0.809
V fixed	0.618	0.179	1.36	1.02	0.808	0.701	0.682	0.876	0.959
W fixed	0.696	0.208	0.831	1.05	0.839	0.795	0.861	0.895	1.01
Y fixed	0.65	0.199	0.76	0.913	0.681	0.851	0.835	0.736	0.66
pThr fixed	0.641	0.744	1.28	3.06	0.797	1.09	1.49	1.38	1.05
pTyr fixed	0.699	1.02	2.15	2.74	1.08	1.96	1.64	1.1	1.19

TGFBR2, construct: aa190-end (from UniProt P37173)
relative phosphorylation
Details	at +1	at +2	at +3	at +4	at -1	at -2	at -3	at -4	at -5
A fixed	0.597	1.09	0.846	0.874	0.646	0.441	0.835	0.987	1
D fixed	0.508	0.616	0.509	0.57	0.715	4.02	1.25	1.01	0.775
E fixed	0.77	0.466	0.485	0.529	0.775	5.47	1.24	0.907	0.713
F fixed	1.27	0.826	1.04	0.789	1.02	0.412	0.859	0.952	0.97
G fixed	0.63	1.36	1.29	1.08	0.67	0.665	1.05	1.08	1.11
H fixed	0.872	1.16	1.18	1.09	1.04	0.478	0.882	1.13	1.1
I fixed	1.69	1.1	1.05	1.06	0.757	0.327	0.748	0.851	0.9
K fixed	0.531	1.26	1.12	1.43	1.03	0.447	0.855	0.91	1.2
L fixed	1.32	0.584	1.07	0.839	1.38	0.366	0.717	0.814	0.901
M fixed	2.09	0.826	0.922	0.919	1.34	0.484	0.907	0.872	0.809
N fixed	0.801	0.891	0.941	0.85	0.812	0.877	0.982	1.08	0.908
P fixed	0.271	0.89	1.12	1.33	1.1	0.365	1.09	1	0.95
Q fixed	1.36	1.08	0.778	0.932	1.01	0.598	0.985	0.898	0.848
R fixed	0.834	1.36	1.32	1.23	0.911	0.886	1.72	1	1.17
V fixed	1.36	1.18	1.01	0.964	1.11	0.332	0.794	0.897	0.933
W fixed	0.946	1.29	1.18	1.47	1.19	0.419	1.12	1.59	1.58
Y fixed	1.14	1.02	1.15	1.06	1.49	0.41	0.973	1.02	1.13
pThr fixed	1.55	0.529	0.488	0.539	0.594	1.2	0.884	0.863	0.765
pTyr fixed	0.53	0.432	0.685	0.483	0.951	0.441	0.778	0.63	0.746

STK3, construct: Full length (from UniProt Q13188)
relative phosphorylation
Details	at +1	at +2	at +3	at +4	at -1	at -2	at -3	at -4	at -5
A fixed	0.661	0.581	0.858	1.04	0.779	0.875	0.933	0.913	1.03
D fixed	0.346	0.503	0.732	0.903	2.13	1.3	1.5	1.32	1.46
E fixed	0.48	0.55	0.651	0.554	1.02	1.19	1.39	1.42	1.2
F fixed	0.902	0.508	0.855	0.762	0.651	1.64	0.919	1.07	0.976
G fixed	0.728	0.737	1.14	1.45	1.3	0.916	1.15	1.01	0.989
H fixed	0.58	1.48	1.11	1.13	1.13	1.18	0.957	1.07	1.15
I fixed	1.92	0.532	0.872	0.747	0.346	0.457	0.461	0.501	0.601
K fixed	0.419	2.81	1.41	1.26	1.17	0.444	0.517	0.821	0.784
L fixed	2.37	0.687	1.05	0.951	0.917	0.511	0.601	0.598	0.821
M fixed	2.76	0.687	0.886	1.02	0.823	0.877	0.727	0.789	0.817
N fixed	0.589	1.64	1.12	1.09	1.74	1.32	1.21	1.17	1.1
P fixed	0.26	0.733	1.1	1.18	0.706	0.555	1.08	0.926	1.23
Q fixed	0.761	1.28	1.06	1.24	1.26	0.953	1.15	1.32	1.06
R fixed	0.479	2.35	1.45	0.852	0.783	0.472	0.602	0.881	0.704
V fixed	1.09	0.747	0.827	0.871	0.511	0.514	0.64	0.809	0.89
W fixed	1.87	0.549	0.925	1.11	0.819	1.63	1.78	1.12	1.15
Y fixed	0.792	0.626	0.953	0.841	0.909	2.17	1.4	1.26	1.03
pThr fixed	1.04	1.05	0.9	0.916	0.849	1.04	1.18	1.08	1.06
pTyr fixed	0.632	0.544	0.771	0.75	0.599	1.56	1.26	1.2	1.24

SBK1, construct: Full length (from UniProt Q52WX2)
relative phosphorylation
Details	at +1	at +2	at +3	at +4	at -1	at -2	at -3	at -4	at -5
A fixed	0.96	0.91	0.834	0.989	0.983	1.24	0.407	1.08	0.746
D fixed	0.948	1.5	1.36	1.18	1.06	0.195	0.0944	0.269	0.195
E fixed	0.863	1.29	1.41	1.01	0.51	0.239	0.113	0.58	0.186
F fixed	0.737	1	0.925	0.851	0.808	0.782	0.161	0.922	2.33
G fixed	1.32	1.01	1.18	1.25	1.22	0.42	0.151	0.634	0.383
H fixed	0.958	1.36	1.11	1.14	1.38	1.02	0.37	1.29	0.5
I fixed	0.817	0.677	0.747	0.787	0.251	0.861	0.133	0.753	1.97
K fixed	0.485	0.494	0.622	0.828	0.982	1.71	1.76	1.99	0.506
L fixed	0.93	0.881	0.812	0.905	0.862	0.957	0.166	0.656	1.83
M fixed	0.852	0.849	0.793	0.983	1.15	1.75	0.184	0.998	1.09
N fixed	1.35	1.18	1.07	1.18	1.94	0.609	0.187	0.49	0.255
P fixed	2.53	1.08	1.64	1.69	1.74	0.27	0.188	0.275	1.15
Q fixed	1.12	1.17	1.04	0.994	1.07	1.21	0.581	1.18	0.597
R fixed	0.531	0.682	0.619	0.709	0.828	2.71	12	2.72	1.07
V fixed	0.953	0.693	0.77	0.699	0.401	1.27	0.153	0.95	1.22
W fixed	0.834	1.05	1.09	0.958	0.658	0.792	0.198	0.926	2.21
Y fixed	0.816	1.16	0.979	0.858	1.16	0.961	0.178	1.28	0.746
pThr fixed	0.598	1.1	1.02	1.4	0.203	0.181	0.105	0.261	0.193
pTyr fixed	0.717	1.35	1.36	1.6	0.745	0.215	0.0961	0.24	0.374
